From patent publication US6348573B1, “Compositions and methods for identifying apoptosis signaling pathway inhibitors and activators” (The Regents of the University of Michigan, priority 1998, dated 2002)

How the values were obtained:
[1] = system: caspase-8; assay: Co-immunoprecipitation of ARC with caspase-8; type: binding, human; conditions: 293T lysates
Experimental: (§1) Briefly, 2 μg of pcDNA3 or pcDNA3-ARC-Flag or -HA was co-transfected with 3 μg of pcDNA3 or caspase expression plasmids. Total amount of transfected plasmid DNA was always 5 μg. 293T cells were harvested after 22 hr and lysed with 0.2% NP-40 isotonic lysis buffer [Z. N. Oltvai et al., Cell 74:609-619 (1993)]. For immunoprecipitation, […] of soluble protein was incubated with 10 μg/ml of polyclonal anti-Flag, monoclonal anti-AU1 or polyclonal anti-HA antibody for 2 hr at 4° C. and tagged proteins were immunoprecipitated with Protein A-Sepharose 4B (Zymed Laboratories Inc., San Francisco, Calif.). Immunoprecipitates were subjected to 12% SDS-polyacrylamide electrophoresis and immunoblotted with anti-Flag, anti-AU1 or anti-HA antibodies.

[2] = target: T1, caspase-8 (Homo sapiens, UniProt Q14790); assay: Co-immunoprecipitation of ARC with caspase-8; type: binding; conditions: caspase-8 deletion mutant
T1 construct: expressed in transfected cells; host or cells: human 293T cells
Experimental: as §1

[3] = target: T1, caspase-8; assay: Caspase-8 enzymatic assay (DEVD-AMC) on immunoprecipitates of ARC co-transfected cells; type: biochemical; conditions: immunoprecipitated caspase-8 from 293T cells, fluorogenic substrate DEVD-AMC
Experimental: [293T cell were co-transfected with pcDNA3-caspase-8-AU1 or pcDNA3-caspase-8-mut and pcDNA3-ARC-Flag or pcDNA3]. Caspase-8 in cell extracts was immunoprecipitated with anti-AU1 antibody and immunoprecipitates were incubated with the fluorogenic substrate DEVD-AMC. ◯:pcDNA3 alone; ●:pcDNA3-ARC-HA alone; □:pcDNA3-caspase-8-AU1 alone; ▪:pcDNA3-caspase-8-AU1 and pcDNA3-ARC-HA; ^Δ:pcDNA3-caspase-8-mt-AU1 alone.
β-galactosidase apoptosis assay and Caspase-8 enzymatic assay: 5×10^5 293T cells were transfected with 0.3 μg of pcDNA3-β-gal plus each expression plasmid in triplicate. Cells were fixed 16 hrs after transfection, stained for β-galactosidase and assayed for morphological features of apoptosis [M. Muira et al., Cell 75:653-660 (1993)]. Statistical significance was determined by one-way ANOVA followed by Student-Neuman-Keuls post-doc comparisons. For caspase-8 enzymatic assay, 1.5×10^6 human 293T cells were co-transfected with pcDNA3, pcDNA3-ARC-Flag, pcDNA3-caspase-8 and pcDNA3-caspase-8-mt by a calcium phosphate method. Total amount of transfected plasmid DNA was always 2.5 μg. 293T cells were harvested 18hr after transfection and lysed with 0.2% NP-40 isotonic lysis buffer. Tagged proteins were immunoprecipitated and caspase activity was measured as described [N. Inohara et al., Proc. Natl. Acad. Sci. USA 94:10717-10722 (1997)].

[4] = target: T2, C-caspase-8-HA (human caspase-8 amino acids 216-496, C-terminal HA tag) (human, UniProt Q14790-4 216-496); assay: co-immunoprecipitation of caspase-8 deletion mutants from 293T cells, immunoblot
T2 construct: range 216-496; The canonical UniProt entry has 479 residues; also called pcDNA3-C-caspase-8-HA; C-terminal region that contains the catalytic domain of caspase-8; not shown: C-terminal HA tag
T2 sequence (Q14790 199-479 limits assumed): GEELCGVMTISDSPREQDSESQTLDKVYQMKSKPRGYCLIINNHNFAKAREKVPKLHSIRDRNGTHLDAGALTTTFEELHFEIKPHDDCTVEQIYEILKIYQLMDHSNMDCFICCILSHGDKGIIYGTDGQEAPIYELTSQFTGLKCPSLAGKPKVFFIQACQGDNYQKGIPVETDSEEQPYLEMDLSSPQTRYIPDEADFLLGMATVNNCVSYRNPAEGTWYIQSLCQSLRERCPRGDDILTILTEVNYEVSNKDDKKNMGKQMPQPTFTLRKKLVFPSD

[5] = system: FADD, RAIDD, Bcl-XL, and c-IAP-2; assay: Association of ARC with other apoptosis regulatory molecules; type: binding; conditions: data not shown
Experimental: as §1

[6] = target: T3, caspase-1, epitope-tagged (human, UniProt P29466 1-404); assay: co-immunoprecipitation from co-transfected 293T cells, immunoblot
T3 construct: also called pcDNA3-caspase-1-Flag
T3 sequence: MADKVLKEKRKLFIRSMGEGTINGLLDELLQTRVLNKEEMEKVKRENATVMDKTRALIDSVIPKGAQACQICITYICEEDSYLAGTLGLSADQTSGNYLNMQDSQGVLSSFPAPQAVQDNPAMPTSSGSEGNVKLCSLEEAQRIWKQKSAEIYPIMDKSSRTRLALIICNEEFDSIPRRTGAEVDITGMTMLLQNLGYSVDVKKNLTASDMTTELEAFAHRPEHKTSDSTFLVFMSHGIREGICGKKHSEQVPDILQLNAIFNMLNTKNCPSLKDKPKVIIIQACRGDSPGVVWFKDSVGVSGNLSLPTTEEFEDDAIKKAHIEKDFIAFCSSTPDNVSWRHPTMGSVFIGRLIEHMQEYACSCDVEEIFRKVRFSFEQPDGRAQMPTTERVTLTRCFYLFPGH

[7] = target: T4, CED-3 (Caenorhabditis elegans, UniProt P42573); assay: Co-immunoprecipitation of ARC with CED-3; type: binding, C. elegans; conditions: 293T lysates
T4 construct: expressed in transfected cells; host or cells: human 293T cells
T4 sequence (P42573 222-503): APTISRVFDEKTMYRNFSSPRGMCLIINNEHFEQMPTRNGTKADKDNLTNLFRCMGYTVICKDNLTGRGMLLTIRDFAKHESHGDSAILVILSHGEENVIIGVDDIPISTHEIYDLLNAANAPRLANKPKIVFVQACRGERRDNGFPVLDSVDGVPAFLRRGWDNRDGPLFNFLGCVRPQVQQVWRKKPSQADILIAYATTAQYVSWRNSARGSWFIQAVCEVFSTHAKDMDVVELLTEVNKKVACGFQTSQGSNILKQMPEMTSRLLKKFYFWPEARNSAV
Experimental: as §1

[8] = target: T5, caspase-1 (Homo sapiens, UniProt P29466); assay: Co-immunoprecipitation of ARC with caspase-1; type: binding; conditions: 293T lysates
T5 construct: expressed in transfected cells; host or cells: human 293T cells
T5 sequence (P29466 120-404): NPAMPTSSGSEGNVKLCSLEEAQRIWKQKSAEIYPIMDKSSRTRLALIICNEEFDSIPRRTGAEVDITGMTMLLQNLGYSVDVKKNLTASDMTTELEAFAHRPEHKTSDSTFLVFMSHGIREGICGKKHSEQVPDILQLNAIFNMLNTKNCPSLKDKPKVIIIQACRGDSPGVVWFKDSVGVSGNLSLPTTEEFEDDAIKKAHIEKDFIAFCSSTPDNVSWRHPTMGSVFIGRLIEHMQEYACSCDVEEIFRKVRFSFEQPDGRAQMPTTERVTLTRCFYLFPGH
Experimental: as §1

B1: human ARC (Apoptosis Repressor with CARD domain), C-terminally Flag- or HA-tagged (other)
chain: MGNAQERPSETIDRERKRLVETLQADSGLLLDALLARGVLTGPEYEALDALPDAERRVRRLLLLVQGKGEAACQELLRCAQRTAGAPDPAWDWQHVGPGYRDRSYDPPCPGHWTPEAPGSGTTCPGLPRASDPDEAGGPEGSEAVQSGTPEEPEPELEAEASKEAEPEPEPEPELEPEAEAEPEPELEPEPDPEPEPDFEERDESEDS
notes: Entire open reading frame expressed in 293T cells; The two tagged constructs are merged here; also called ARC-Flag; ARC-HA; not shown: C-terminal FLAG or HA tag
[1]
  co-immunoprecipitation with caspase-8: co-immunoprecipitated
[2]
  association with the N-terminal death effector domain (DED) of caspase-8: associated
[3]
  enzymatic activity of caspase-8: inhibited
[4]
  binding result: no binding
[5]
  association with FADD, RAIDD, Bcl-XL, and c-IAP-2: did not associate
[6]
  binding result: no binding
[7]
  co-immunoprecipitation with CED-3: co-immunoprecipitated
[8]
  co-immunoprecipitation with caspase-1: not
